In US20040109827A1, “Powdery preparations and proecss for producing the same” (priority 2000, published 2004):

Assay: Cascade impactor (Andersen sampler) analysis of powder formulations as a model of artificial airways and lung
Conditions: Table 9
Procedure: In order to investigate aerodynamic particle diameters of powders, examination was carried out using a cascade impactor as a model of artificial airways and lung. The main body comprises 8 stages and a final filter superposed on top of another in combination with a flow meter and a suction pump. The method described in “Multistage Cascade Impactor Apparatus” in USP 2000 “Physical Tests and Determinations/Aerosols” was basically employed. A specific condition is as described below.
Suitable amounts of the formulations were filled into the No. 2 capsules specified by the Japanese Pharmacopoeia and placed on the device.
These formulations were analyzed using a cascade impactor. […] These RF values are obtained by weighing the powders collected at each stage and dividing the amounts collected at stages 2 to 5 by a total amount of finely ground substances contained in the formulations.
These formulations were analyzed using a cascade impactor. […] These RF values are obtained by quantifying by HPLC the glucagon in formulations collected at each stage and dividing the amounts of glucagon at stages 2 to 5 by the total amount of glucagon contained in the encapsulated formulations. Conditions for HPLC analysis are as shown below.
These formulations were filled into the No. 2 capsules specified by the Pharmacopoeia of Japan and analyzed using the following device.

## glucagon
No. 2 capsule, Jet-haler, suctioning for 10 seconds
  Retention in capsule: Almost all formulations remained due
Glucagon by HPLC at stages 2 to 5 / total glucagon in encapsulated formulations, lactose carrier Pharmatose 325 M
  RF value: 0%
